Tests used:
[1] = test system: GST-PKBα (full length human protein kinase Bα with N-terminal glutathione S-transferase, from unstimulated 293 cells) [GST: P08515]
[2] = biological target: HA-PKBα (haemagglutinin epitope-tagged human PKBα expressed in 293 cells) (UniProt P31749)
[3] = biological target: GST-ΔPH-PKBα (residues 118-479 of human PKBα, lacking the PH domain) (UniProt P31749)
GST-ΔPH-PKBα (residues 118-479 of human PKBα, lacking the PH domain), sequence (P31749 whole entry, looked up, stated change not applied, the tested form may be a part): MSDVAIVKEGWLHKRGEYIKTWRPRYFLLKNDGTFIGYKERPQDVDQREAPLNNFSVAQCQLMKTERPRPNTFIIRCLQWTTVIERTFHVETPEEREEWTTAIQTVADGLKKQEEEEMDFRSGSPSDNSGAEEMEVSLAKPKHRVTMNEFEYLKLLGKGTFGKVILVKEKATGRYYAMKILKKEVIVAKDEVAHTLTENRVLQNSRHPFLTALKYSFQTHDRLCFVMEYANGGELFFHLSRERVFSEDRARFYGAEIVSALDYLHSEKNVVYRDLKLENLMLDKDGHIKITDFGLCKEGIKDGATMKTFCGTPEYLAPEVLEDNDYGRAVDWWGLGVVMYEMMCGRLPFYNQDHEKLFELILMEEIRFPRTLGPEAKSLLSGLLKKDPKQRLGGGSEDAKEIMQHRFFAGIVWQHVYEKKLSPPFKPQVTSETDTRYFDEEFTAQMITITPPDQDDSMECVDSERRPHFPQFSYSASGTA

GST-PKBα (full length human protein kinase Bα with N-terminal glutathione S-transferase, from unstimulated 293 cells) [GST: P08515], sequence (P08515 whole entry, looked up): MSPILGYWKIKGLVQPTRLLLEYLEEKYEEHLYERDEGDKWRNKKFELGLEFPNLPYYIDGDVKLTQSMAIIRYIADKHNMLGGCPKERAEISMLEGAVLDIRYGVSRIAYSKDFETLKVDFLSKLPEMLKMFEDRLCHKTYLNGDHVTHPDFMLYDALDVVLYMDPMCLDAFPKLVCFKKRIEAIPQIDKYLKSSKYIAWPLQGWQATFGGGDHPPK
HA-PKBα (haemagglutinin epitope-tagged human PKBα expressed in 293 cells), sequence (P31749 whole entry, looked up, the tested form may be a part): as the sequence (P31749 whole entry, looked up, stated change not applied, the tested form may be a part) above

GST-ΔPH-PDK1 (residues 1-450 of human PDK1, lacking the putative C-terminal PH domain)
rate of activation of GST-PKBα by GST-ΔPH-PDK1 compared to full length wild-type GST-PDK1 [1]: the rate of activation was reduced about 30-fold compared to full length wild-type GST-PDK1

GST-D223A-PDK1 (full length catalytically inactive human PDK1, Asp223 changed to Ala)
phosphorylation and activation of GST-PKBα [1]: did not phosphorylate or active GST-PKBα in the presence of PtdCho/PtdSer lipid vesicles containing PtdIns(3,4,5)P3 (data not shown)

PtdIns(3,4,5)P3-dependent protein kinase-1 (PDK1) purified from rabbit skeletal muscle
phosphorylation of immunoprecipitated HA-PKB by PDK1 [2]: immunoprecipitated HA-PKB was not phosphorylated effectively by PDK1
activation and phosphorylation of GST-ΔPH-PKBα [3]: also activated and phosphorylated GST-ΔPH-PKBα in a PtdIns(3,4,5)P3 independent manner (data not shown)
fold increase in GST-PKBα activity with sn-1,2-dilinoleoyl D-PtdIns(3,4,5)P3 [1]: causing a 36-fold increase in GST-PKBα activity
fold increase in GST-PKBα activity with sn-1,2-dipalmitoyl PtdIns(3,4)P2 (lipid 7) [1]: both inositol phospholipids increasing GST-PKBα activity about 6-fold
fold increase in GST-PKBα activity with sn-1,2-dipalmitoyl PtdIns(3,4,5)P3 (lipid 6) [1]: both inositol phospholipids increasing GST-PKBα activity about 6-fold
increase in GST-PKBα activity [1]: a >30-fold increase in activity
phosphorylation of GST-PKBα (mol 32P per mol protein) [1]: to a level approaching 0.7 moles of 32 P/mol protein
phosphorylation of GST-PKBα (mol/mol) in the sample used for site mapping [1]: phosphorylated to 0.4-0.6 mol/mol with PDK1
specific activity of GST-PKBα reached after phosphorylation by PDK1 [1]: reached a specific activity of 80 U/mg
specific activity of PDK1 after Mono S (units of GST-PKBα activation per mg) [1]: 69500 U/mg
specific activity towards GST-PKBα in the presence of PtdIns(3,4,5)P3 [1]: PDK1 purified from rabbit skeletal muscle (100 000 U/mg)
